From patent publication US8309523 (VIB VZW, dated 2012)

What was measured:
[1] = system: T1, Z-LSSR-CHO
T1 sequence: LSSR

[2] = system: T2, Z-GASR-CHO
T2 sequence: GASR

[3] = system: T3, Ac-LSSR-AMC
T3 sequence: LSSR

[4] = molecular target: T4, [35S]methionine-labeled human A20 (in vitro translated) (UniProt P21580)
T4 sequence: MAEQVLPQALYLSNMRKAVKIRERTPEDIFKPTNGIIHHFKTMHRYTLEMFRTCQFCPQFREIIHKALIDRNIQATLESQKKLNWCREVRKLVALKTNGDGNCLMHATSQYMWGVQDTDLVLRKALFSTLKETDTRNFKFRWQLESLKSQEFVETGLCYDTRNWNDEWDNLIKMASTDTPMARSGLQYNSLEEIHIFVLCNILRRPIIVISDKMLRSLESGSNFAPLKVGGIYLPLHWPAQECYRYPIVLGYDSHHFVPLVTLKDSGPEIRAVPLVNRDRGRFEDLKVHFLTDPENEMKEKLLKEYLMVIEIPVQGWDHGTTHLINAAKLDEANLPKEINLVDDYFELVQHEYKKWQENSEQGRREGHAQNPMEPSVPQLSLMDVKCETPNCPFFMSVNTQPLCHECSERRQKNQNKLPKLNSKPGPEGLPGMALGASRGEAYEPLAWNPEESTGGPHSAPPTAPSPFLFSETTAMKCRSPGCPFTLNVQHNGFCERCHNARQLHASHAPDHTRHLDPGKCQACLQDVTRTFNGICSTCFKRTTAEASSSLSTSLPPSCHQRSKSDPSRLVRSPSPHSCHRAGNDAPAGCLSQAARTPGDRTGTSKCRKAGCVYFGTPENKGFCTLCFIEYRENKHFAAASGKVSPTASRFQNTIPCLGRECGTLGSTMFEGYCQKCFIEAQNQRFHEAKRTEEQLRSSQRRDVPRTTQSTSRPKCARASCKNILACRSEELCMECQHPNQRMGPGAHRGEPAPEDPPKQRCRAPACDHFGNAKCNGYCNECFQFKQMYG

MALT1C-gyraseB, sequence (chain, part): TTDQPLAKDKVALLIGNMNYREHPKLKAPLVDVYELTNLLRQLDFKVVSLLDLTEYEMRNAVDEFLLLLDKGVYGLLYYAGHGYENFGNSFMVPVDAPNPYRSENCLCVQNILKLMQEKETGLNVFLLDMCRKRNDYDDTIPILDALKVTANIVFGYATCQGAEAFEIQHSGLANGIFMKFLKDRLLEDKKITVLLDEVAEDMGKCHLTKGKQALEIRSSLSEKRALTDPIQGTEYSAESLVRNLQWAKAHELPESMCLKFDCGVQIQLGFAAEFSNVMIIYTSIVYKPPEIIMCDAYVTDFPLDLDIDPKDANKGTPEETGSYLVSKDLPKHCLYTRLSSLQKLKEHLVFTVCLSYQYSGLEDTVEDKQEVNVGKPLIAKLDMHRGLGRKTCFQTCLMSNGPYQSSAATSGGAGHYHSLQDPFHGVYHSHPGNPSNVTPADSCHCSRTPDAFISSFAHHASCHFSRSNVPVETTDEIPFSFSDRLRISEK

For MALT1C-gyraseB, the “Ac-LSSR-AMC cleavage by recombinant MALT1” value [1] was “adding Z-LSSR-CHO (see SEQ ID NO:1) or Z-GASR-CHO (see SEQ ID NO:2) completely blocked the proteolytic activity of recombinant MALT1”, the “Ac-LSSR-AMC cleavage by recombinant MALT1” value [2] was “adding Z-LSSR-CHO (see SEQ ID NO:1) or Z-GASR-CHO (see SEQ ID NO:2) completely blocked the proteolytic activity of recombinant MALT1” and the “cleavage of Ac-LSSR-AMC in vitro (fluorescence release)” value [3] was “the recombinant MALT1 p20 fragment (Sun et al., 2004) efficiently cleaved the Ac-LSSR-AMC (see SEQ ID NO:1) substrate”. For the same substance, the “in vitro cleavage of radiolabeled A20 (SDS-PAGE, autoradiography; 500, 1000 or 1500 nM enzyme)” value [4] was “In vitro incubation of radiolabeled A20 with recombinant MALT1C-gyraseB resulted in the generation of an A20 fragment of approximately 50 kDa”.
